For test [1], the target named is TacAT^WT complex (one H6-TacT with one TacA) (Salmonella enterica subsp. enterica serovar Typhimurium LT2) (UniProt Q8ZL98). The experiment in a line: SEC; Superose 12 10/300 GL; 50 mM HEPES pH 7.0 at 4°C, 150 mM NaCl, 20% glycerol; co-purified TacAT complexes applied; molecular weight from a standard curve of gel filtration standards. (In general: SEC sorts molecules by how far they enter the pores of the column.)

Test [2] concerns the target H6-TacT^WT toxin (Gcn5-related N-acetyltransferase TacT) (Salmonella enterica subsp. enterica serovar Typhimurium LT2) (UniProt Q8ZL98). The experiment in a line: SEC.

In publication PMC5449658 one finds stoichiometry N data, which are given here for two substances.

Chain of UniProt Q8ZL98 (Q8ZL98 whole entry): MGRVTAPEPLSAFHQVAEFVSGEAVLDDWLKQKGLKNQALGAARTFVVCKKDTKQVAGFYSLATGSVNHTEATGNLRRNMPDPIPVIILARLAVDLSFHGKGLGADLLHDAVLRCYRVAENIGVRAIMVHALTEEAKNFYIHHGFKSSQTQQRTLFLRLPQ

“TacAT^WT complex (one H6-TacT with one TacA) (from UniProt Q8ZL98 1-161)”: the stoichiometry N (in general, the number of molecules, sites or subunits per partner or assembly) in test [1] stood at 2.

Turning to “TacA^WT antitoxin (tagless native TacA) (natural protein)”, the stoichiometry N in test [2] is 1.
